Numbering of substitutions follows the chain as printed.
T1: soluble EpoR (EposR) (human, UniProt P19235 25-250, limits assumed)
T1 construct: also called soluble recombinant human EpoR
T1 sequence (looked up): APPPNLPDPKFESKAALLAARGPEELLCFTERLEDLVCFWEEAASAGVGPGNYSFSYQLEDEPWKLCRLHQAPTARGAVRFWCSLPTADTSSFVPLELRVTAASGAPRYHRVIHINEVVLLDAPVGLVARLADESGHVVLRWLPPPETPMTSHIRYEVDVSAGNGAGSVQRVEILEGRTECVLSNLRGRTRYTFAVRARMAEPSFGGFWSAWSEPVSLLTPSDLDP

T2: human erythropoietin receptor (EpoR) on human erythroleukemic cells (human, UniProt P19235 25-508)
T2 sequence (looked up): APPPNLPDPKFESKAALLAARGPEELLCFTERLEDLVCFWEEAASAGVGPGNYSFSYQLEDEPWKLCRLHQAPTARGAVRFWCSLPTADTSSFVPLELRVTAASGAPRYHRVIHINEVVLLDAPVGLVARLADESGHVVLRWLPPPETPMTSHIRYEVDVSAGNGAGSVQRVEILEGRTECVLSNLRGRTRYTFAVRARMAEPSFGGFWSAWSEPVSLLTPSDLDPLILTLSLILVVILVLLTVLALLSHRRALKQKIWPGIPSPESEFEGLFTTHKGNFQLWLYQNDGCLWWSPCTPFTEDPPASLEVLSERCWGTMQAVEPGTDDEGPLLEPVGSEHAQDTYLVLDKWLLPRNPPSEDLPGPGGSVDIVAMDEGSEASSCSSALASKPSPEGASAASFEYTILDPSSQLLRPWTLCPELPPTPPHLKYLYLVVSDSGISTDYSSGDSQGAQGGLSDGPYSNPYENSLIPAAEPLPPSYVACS

T3: soluble EpoR (EposR) (human, UniProt P19235 25-250)
T3 chain: T1 sequence (looked up)

B1: Ab12.121 (antibody, IgG2, V domains shown)
VH: QVQLQESGPGLVKPSETLSLTCTVSGASISSYYWSWIRQPPGKGLEWIGYIGGSGSTNYNPSLKSRVTISVDTSKNQFSLKLRSVTAADTAVYYCARERLGIGDYWGQGTLVTVSS
VL: DIQLTQSPSSLSASVGDRVTITCRASQGIRNDLGWYQQKPGKAPKRLIYAASSLQSGVPSRFSGSGSGTEFTLTISSLQPEDFATYYCLQHNTYPPTFGQGTKVEIK
B2: Ab12.120 (antibody, IgG2, V domains shown)
VH: B1 VH with G52Y, G53Y, S54E
VL: B1 VL
B3: Ab12.123 (antibody, IgG2, V domains shown)
VH: B1 VH with G53Y, S54E
VL: B1 VL
B4: Ab12.119 (antibody, IgG2, V domains shown)
VH: B1 VH with G52Y
VL: B1 VL
B5: Ab12.122 (antibody, IgG2, V domains shown)
VH: B1 VH with G52Y, S54E
VL: B1 VL
B6: Ab12.118 (antibody, IgG2, V domains shown)
VH: B1 VH with G53Y
VL: B1 VL
B7: Ab12 IgG2/K (antibody, V domains shown)
VH: B1 VH with G52Y, G53Y
VL: B1 VL
notes: Human IgG2/kappa
B8: Ab12.6 (antibody, V domains shown)
VH: B1 VH with S54E
VL: B1 VL
notes: CDRH2 Y Y S is changed to G G E against Ab12; also called H2-1-3 R2 #6
B9: Ab12.56 (antibody, V domains shown)
VH: B1 VH with G52A, S54T
VL: B1 VL
notes: CDRH2 Y Y S is changed to A G T against Ab12
B10: Ab12.70 (antibody, V domains shown)
VH: B1 VH with G52Y, G53S, S54P, G55S
VL: B1 VL
notes: also called H2-4-1 R2 #8,9
B11: Ab12 scFv construct with linker 41 in the tether position and the Gly/Ser linker (WT) in the scFv linker position, displayed on yeast (scFv)
scFv: GENKVEYAPALMALSQVQLQESGPGLVKPSETLSLTCTVSGASISSYYWSWIRQPPGKGLEWIGYIYYSGSTNYNPSLKSRVTISVDTSKNQFSLKLRSVTAADTAVYYCARERLGIGDYWGQGTLVTVSSGGGGSGGGGSGGGGSDIQLTQSPSSLSASVGDRVTITCRASQGIRNDLGWYQQKPGKAPKRLIYAASSLQSGVPSRFSGSGSGTEFTLTISSLQPEDFATYYCLQHNTYPPTFGQGTKVEIK
B12: Ab12 scFv construct with linker 41 in the tether position and linker 34 in the scFv linker position, displayed on yeast (scFv)
scFv: GENKVEYAPALMALSQVQLQESGPGLVKPSETLSLTCTVSGASISSYYWSWIRQPPGKGLEWIGYIYYSGSTNYNPSLKSRVTISVDTSKNQFSLKLRSVTAADTAVYYCARERLGIGDYWGQGTLVTVSSGHEAAAVMQVQYPASDIQLTQSPSSLSASVGDRVTITCRASQGIRNDLGWYQQKPGKAPKRLIYAASSLQSGVPSRFSGSGSGTEFTLTISSLQPEDFATYYCLQHNTYPPTFGQGTKVEIK
B13: Ab12 scFv construct with Gly/Ser linker (WT) in both the tether and scFv linker positions, displayed on yeast (scFv)
scFv: GGGGSGGGGSGGGGSQVQLQESGPGLVKPSETLSLTCTVSGASISSYYWSWIRQPPGKGLEWIGYIYYSGSTNYNPSLKSRVTISVDTSKNQFSLKLRSVTAADTAVYYCARERLGIGDYWGQGTLVTVSSGGGGSGGGGSGGGGSDIQLTQSPSSLSASVGDRVTITCRASQGIRNDLGWYQQKPGKAPKRLIYAASSLQSGVPSRFSGSGSGTEFTLTISSLQPEDFATYYCLQHNTYPPTFGQGTKVEIK
B14: Ab12 41/40 scFv (linker 41 as tether, linker 40 as scFv linker), displayed on yeast (scFv)
scFv: GENKVEYAPALMALSQVQLQESGPGLVKPSETLSLTCTVSGASISSYYWSWIRQPPGKGLEWIGYIYYSGSTNYNPSLKSRVTISVDTSKNQFSLKLRSVTAADTAVYYCARERLGIGDYWGQGTLVTVSSGPAKELTPLKEAKVSDIQLTQSPSSLSASVGDRVTITCRASQGIRNDLGWYQQKPGKAPKRLIYAASSLQSGVPSRFSGSGSGTEFTLTISSLQPEDFATYYCLQHNTYPPTFGQGTKVEIK

These binders were tested against T1, soluble EpoR (EposR) (assay: SPR (BIAcore), IgG2/K sub-variant of Ab12.6, EposR as test antigen).
Experimental: (§1) BIAcore analyses were performed on a BIAcore 2000 utilizing the BIAcontrol software version 3.1.0 and on a BIAcore 3000 utilizing the BIAcontrol software version 4.0.1. (BIAcore, Uppsala, Sweden) using EposR as the test antigen.
Sub-variants also were subjected to BIAcore analyses as described above.

| Kd [nM] | koff [s⁻¹] | kon [M⁻¹ s⁻¹] | Binder |
| --- | --- | --- | --- |
| 31 | 0.0063 | 210000 | B1 |
| 7 | 0.002 | 270000 | B2 |
| 25 | 0.0033 | 130000 | B3 |
| 21 | 0.0044 | 210000 | B4 |
| 23 | 0.0049 | 220000 | B5 |
| 22 | 0.0055 | 250000 | B6 |

These binders were tested against T2, human erythropoietin receptor (EpoR) on … (assay: cell-based or functional assay).

| EC50 (cell proliferation) [nM] | Emax (cell proliferation, absorbance) | Binder |
| --- | --- | --- |
| 1.29 | 1.98 absorbance (OD 490 nm) | B7 |
| 0.465 | 2.3 absorbance (OD 490 nm) | B1 |
| 0.34 | 2 absorbance (OD 490 nm) | B2 |
| 0.58 | 2.81 absorbance (OD 490 nm) | B8 |
| 1.17 | 2.51 absorbance (OD 490 nm) | B9 |
| 0.91 | 2.7 absorbance (OD 490 nm) | B3 |
| 1.34 | 2.53 absorbance (OD 490 nm) | B4 |
| 0.42 | 2.4 absorbance (OD 490 nm) | B5 |
| 1.13 | 2.65 absorbance (OD 490 nm) | B6 |

The binders below were run against T1, soluble EpoR (EposR) (assay: SPR (BIAcore), IgG2/K antibody, EposR as test antigen).
Experimental: as §1

| Kd [nM] | koff [s⁻¹] | kon [M⁻¹ s⁻¹] | Binder |
| --- | --- | --- | --- |
| 11 | 0.0013 | 140000 | B7 |
| 32 | 0.0048 | 150000 | B8 |
| 20 | 0.0019 | 94000 | B9 |
| 6 | 0.00099 | 160000 | B10 |

Biological target: T3, soluble EpoR (EposR)
Assay: yeast display flow cytometry

| Kd [nM] | Binder |
| --- | --- |
| 5 | B11 |
| 8.5 | B12 |
| 9 | B13 |
| 4 | B14 |

— patent publication US20060018902A1 (published 2006)
